Laboratory results taken from patent publication US12679878B2, “CRF2 receptor agonists and their use in therapy” (SANOFI, priority 2020, dated 2026).
Starred links: 1 amine or outer side, 2 acyl side, 3 side chain; linkers in the order of their positions; H or OH if unused. Non-standard residues stand in square brackets, D forms with d. Groups on a side chain read outwards from the residue. No end group written: not given here. *: point of attachment. C18 diacid = O=C(O)CCCCCCCCCCCCCCCCC(=O)*; C16 diacid = O=C(O)CCCCCCCCCCCCCCC(=O)*; γGlu = O=C(O)[C@H](CCC(=O)[*:2])N[*:1]; AEEA = NCCOCCOCC(=O)O; Aib = CC(C)(N)C(=O)O

T1: CRF1R receptor (anti-target) (UniProt P34998 24-415, limits assumed)
T1 sequence (looked up): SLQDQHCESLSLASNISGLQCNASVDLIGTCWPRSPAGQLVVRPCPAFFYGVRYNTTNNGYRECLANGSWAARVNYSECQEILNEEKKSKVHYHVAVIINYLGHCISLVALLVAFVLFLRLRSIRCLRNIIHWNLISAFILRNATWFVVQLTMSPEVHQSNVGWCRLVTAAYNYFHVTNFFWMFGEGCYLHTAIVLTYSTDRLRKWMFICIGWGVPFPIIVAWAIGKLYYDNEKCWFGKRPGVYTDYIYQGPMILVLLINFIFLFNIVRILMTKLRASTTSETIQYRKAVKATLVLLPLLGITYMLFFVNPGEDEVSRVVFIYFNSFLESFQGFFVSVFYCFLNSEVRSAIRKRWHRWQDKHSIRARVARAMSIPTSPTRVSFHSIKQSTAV

B1: peptide of SEQ ID NO: 156 (peptide)
peptide: IVLSLDVPIGLK([AEEA-AEEA-γGlu-C18 diacid])QILLKQERQKK[Aib]REQAETNAQILAQV-NH2
modifications: N-terminus assumed
SMILES: CC[C@H](C)[C@H](N)C(=O)N[C@H](C(=O)N[C@@H](CC(C)C)C(=O)N[C@@H](CO)C(=O)N[C@@H](CC(C)C)C(=O)N[C@@H](CC(=O)O)C(=O)N[C@H](C(=O)N1CCC[C@H]1C(=O)N[C@H](C(=O)NCC(=O)N[C@@H](CC(C)C)C(=O)N[C@@H](CCCCNC(=O)COCCOCCNC(=O)COCCOCCNC(=O)CC[C@H](NC(=O)CCCCCCCCCCCCCCCCC(=O)O)C(=O)O)C(=O)N[C@@H](CCC(N)=O)C(=O)N[C@H](C(=O)N[C@@H](CC(C)C)C(=O)N[C@@H](CC(C)C)C(=O)N[C@@H](CCCCN)C(=O)N[C@@H](CCC(N)=O)C(=O)N[C@@H](CCC(=O)O)C(=O)N[C@@H](CCCNC(=N)N)C(=O)N[C@@H](CCC(N)=O)C(=O)N[C@@H](CCCCN)C(=O)N[C@@H](CCCCN)C(=O)NC(C)(C)C(=O)N[C@@H](CCCNC(=N)N)C(=O)N[C@@H](CCC(=O)O)C(=O)N[C@@H](CCC(N)=O)C(=O)N[C@@H](C)C(=O)N[C@@H](CCC(=O)O)C(=O)N[C@H](C(=O)N[C@@H](CC(N)=O)C(=O)N[C@@H](C)C(=O)N[C@@H](CCC(N)=O)C(=O)N[C@H](C(=O)N[C@@H](CC(C)C)C(=O)N[C@@H](C)C(=O)N[C@@H](CCC(N)=O)C(=O)N[C@H](C(N)=O)C(C)C)[C@@H](C)CC)[C@@H](C)O)[C@@H](C)CC)[C@@H](C)CC)C(C)C)C(C)C
B2: peptide of SEQ ID NO: 187 (peptide)
peptide: IVLSLD[dV]PIKLK([γGlu-C16 diacid])QILLKQERQK[Aib]QREQAEKNKQILAQV-NH2
modifications: N-terminus assumed
SMILES: CC[C@H](C)[C@H](N)C(=O)N[C@H](C(=O)N[C@@H](CC(C)C)C(=O)N[C@@H](CO)C(=O)N[C@@H](CC(C)C)C(=O)N[C@@H](CC(=O)O)C(=O)N[C@@H](C(=O)N1CCC[C@H]1C(=O)N[C@H](C(=O)N[C@@H](CCCCN)C(=O)N[C@@H](CC(C)C)C(=O)N[C@@H](CCCCNC(=O)CC[C@H](NC(=O)CCCCCCCCCCCCCCC(=O)O)C(=O)O)C(=O)N[C@@H](CCC(N)=O)C(=O)N[C@H](C(=O)N[C@@H](CC(C)C)C(=O)N[C@@H](CC(C)C)C(=O)N[C@@H](CCCCN)C(=O)N[C@@H](CCC(N)=O)C(=O)N[C@@H](CCC(=O)O)C(=O)N[C@@H](CCCNC(=N)N)C(=O)N[C@@H](CCC(N)=O)C(=O)N[C@@H](CCCCN)C(=O)NC(C)(C)C(=O)N[C@@H](CCC(N)=O)C(=O)N[C@@H](CCCNC(=N)N)C(=O)N[C@@H](CCC(=O)O)C(=O)N[C@@H](CCC(N)=O)C(=O)N[C@@H](C)C(=O)N[C@@H](CCC(=O)O)C(=O)N[C@@H](CCCCN)C(=O)N[C@@H](CC(N)=O)C(=O)N[C@@H](CCCCN)C(=O)N[C@@H](CCC(N)=O)C(=O)N[C@H](C(=O)N[C@@H](CC(C)C)C(=O)N[C@@H](C)C(=O)N[C@@H](CCC(N)=O)C(=O)N[C@H](C(N)=O)C(C)C)[C@@H](C)CC)[C@@H](C)CC)[C@@H](C)CC)C(C)C)C(C)C
B3: peptide of SEQ ID NO: 189 (peptide)
peptide: IVLSLD[dV]PIKLK([γGlu-C16 diacid])QILLKQERQKK[Aib]RQKAEKNKQILAQV-NH2
modifications: N-terminus assumed
SMILES: CC[C@H](C)[C@H](N)C(=O)N[C@H](C(=O)N[C@@H](CC(C)C)C(=O)N[C@@H](CO)C(=O)N[C@@H](CC(C)C)C(=O)N[C@@H](CC(=O)O)C(=O)N[C@@H](C(=O)N1CCC[C@H]1C(=O)N[C@H](C(=O)N[C@@H](CCCCN)C(=O)N[C@@H](CC(C)C)C(=O)N[C@@H](CCCCNC(=O)CC[C@H](NC(=O)CCCCCCCCCCCCCCC(=O)O)C(=O)O)C(=O)N[C@@H](CCC(N)=O)C(=O)N[C@H](C(=O)N[C@@H](CC(C)C)C(=O)N[C@@H](CC(C)C)C(=O)N[C@@H](CCCCN)C(=O)N[C@@H](CCC(N)=O)C(=O)N[C@@H](CCC(=O)O)C(=O)N[C@@H](CCCNC(=N)N)C(=O)N[C@@H](CCC(N)=O)C(=O)N[C@@H](CCCCN)C(=O)N[C@@H](CCCCN)C(=O)NC(C)(C)C(=O)N[C@@H](CCCNC(=N)N)C(=O)N[C@@H](CCC(N)=O)C(=O)N[C@@H](CCCCN)C(=O)N[C@@H](C)C(=O)N[C@@H](CCC(=O)O)C(=O)N[C@@H](CCCCN)C(=O)N[C@@H](CC(N)=O)C(=O)N[C@@H](CCCCN)C(=O)N[C@@H](CCC(N)=O)C(=O)N[C@H](C(=O)N[C@@H](CC(C)C)C(=O)N[C@@H](C)C(=O)N[C@@H](CCC(N)=O)C(=O)N[C@H](C(N)=O)C(C)C)[C@@H](C)CC)[C@@H](C)CC)[C@@H](C)CC)C(C)C)C(C)C
B4: peptide of SEQ ID NO: 190 (peptide)
peptide: IVLSLD[dV]PIKLK([γGlu-C16 diacid])QILLKQERQKKQREQAEKNKQILEQV-NH2
modifications: N-terminus assumed
SMILES: CC[C@H](C)[C@H](N)C(=O)N[C@H](C(=O)N[C@@H](CC(C)C)C(=O)N[C@@H](CO)C(=O)N[C@@H](CC(C)C)C(=O)N[C@@H](CC(=O)O)C(=O)N[C@@H](C(=O)N1CCC[C@H]1C(=O)N[C@H](C(=O)N[C@@H](CCCCN)C(=O)N[C@@H](CC(C)C)C(=O)N[C@@H](CCCCNC(=O)CC[C@H](NC(=O)CCCCCCCCCCCCCCC(=O)O)C(=O)O)C(=O)N[C@@H](CCC(N)=O)C(=O)N[C@H](C(=O)N[C@@H](CC(C)C)C(=O)N[C@@H](CC(C)C)C(=O)N[C@@H](CCCCN)C(=O)N[C@@H](CCC(N)=O)C(=O)N[C@@H](CCC(=O)O)C(=O)N[C@@H](CCCNC(=N)N)C(=O)N[C@@H](CCC(N)=O)C(=O)N[C@@H](CCCCN)C(=O)N[C@@H](CCCCN)C(=O)N[C@@H](CCC(N)=O)C(=O)N[C@@H](CCCNC(=N)N)C(=O)N[C@@H](CCC(=O)O)C(=O)N[C@@H](CCC(N)=O)C(=O)N[C@@H](C)C(=O)N[C@@H](CCC(=O)O)C(=O)N[C@@H](CCCCN)C(=O)N[C@@H](CC(N)=O)C(=O)N[C@@H](CCCCN)C(=O)N[C@@H](CCC(N)=O)C(=O)N[C@H](C(=O)N[C@@H](CC(C)C)C(=O)N[C@@H](CCC(=O)O)C(=O)N[C@@H](CCC(N)=O)C(=O)N[C@H](C(N)=O)C(C)C)[C@@H](C)CC)[C@@H](C)CC)[C@@H](C)CC)C(C)C)C(C)C
B5: peptide of SEQ ID NO: 193 (peptide)
peptide: IVLSLD[dV]PIGLK([γGlu-C16 diacid])QILLKQERQKK[Aib]REQAETNKRILERV-NH2
modifications: N-terminus assumed
SMILES: CC[C@H](C)[C@H](N)C(=O)N[C@H](C(=O)N[C@@H](CC(C)C)C(=O)N[C@@H](CO)C(=O)N[C@@H](CC(C)C)C(=O)N[C@@H](CC(=O)O)C(=O)N[C@@H](C(=O)N1CCC[C@H]1C(=O)N[C@H](C(=O)NCC(=O)N[C@@H](CC(C)C)C(=O)N[C@@H](CCCCNC(=O)CC[C@H](NC(=O)CCCCCCCCCCCCCCC(=O)O)C(=O)O)C(=O)N[C@@H](CCC(N)=O)C(=O)N[C@H](C(=O)N[C@@H](CC(C)C)C(=O)N[C@@H](CC(C)C)C(=O)N[C@@H](CCCCN)C(=O)N[C@@H](CCC(N)=O)C(=O)N[C@@H](CCC(=O)O)C(=O)N[C@@H](CCCNC(=N)N)C(=O)N[C@@H](CCC(N)=O)C(=O)N[C@@H](CCCCN)C(=O)N[C@@H](CCCCN)C(=O)NC(C)(C)C(=O)N[C@@H](CCCNC(=N)N)C(=O)N[C@@H](CCC(=O)O)C(=O)N[C@@H](CCC(N)=O)C(=O)N[C@@H](C)C(=O)N[C@@H](CCC(=O)O)C(=O)N[C@H](C(=O)N[C@@H](CC(N)=O)C(=O)N[C@@H](CCCCN)C(=O)N[C@@H](CCCNC(=N)N)C(=O)N[C@H](C(=O)N[C@@H](CC(C)C)C(=O)N[C@@H](CCC(=O)O)C(=O)N[C@@H](CCCNC(=N)N)C(=O)N[C@H](C(N)=O)C(C)C)[C@@H](C)CC)[C@@H](C)O)[C@@H](C)CC)[C@@H](C)CC)C(C)C)C(C)C
B6: peptide of SEQ ID NO: 195 (peptide)
peptide: IVLSLD[dV]PIGLK([γGlu-C16 diacid])QILLKQERQKK[Aib]RQQAETNKRILERV-NH2
modifications: N-terminus assumed
SMILES: CC[C@H](C)[C@H](N)C(=O)N[C@H](C(=O)N[C@@H](CC(C)C)C(=O)N[C@@H](CO)C(=O)N[C@@H](CC(C)C)C(=O)N[C@@H](CC(=O)O)C(=O)N[C@@H](C(=O)N1CCC[C@H]1C(=O)N[C@H](C(=O)NCC(=O)N[C@@H](CC(C)C)C(=O)N[C@@H](CCCCNC(=O)CC[C@H](NC(=O)CCCCCCCCCCCCCCC(=O)O)C(=O)O)C(=O)N[C@@H](CCC(N)=O)C(=O)N[C@H](C(=O)N[C@@H](CC(C)C)C(=O)N[C@@H](CC(C)C)C(=O)N[C@@H](CCCCN)C(=O)N[C@@H](CCC(N)=O)C(=O)N[C@@H](CCC(=O)O)C(=O)N[C@@H](CCCNC(=N)N)C(=O)N[C@@H](CCC(N)=O)C(=O)N[C@@H](CCCCN)C(=O)N[C@@H](CCCCN)C(=O)NC(C)(C)C(=O)N[C@@H](CCCNC(=N)N)C(=O)N[C@@H](CCC(N)=O)C(=O)N[C@@H](CCC(N)=O)C(=O)N[C@@H](C)C(=O)N[C@@H](CCC(=O)O)C(=O)N[C@H](C(=O)N[C@@H](CC(N)=O)C(=O)N[C@@H](CCCCN)C(=O)N[C@@H](CCCNC(=N)N)C(=O)N[C@H](C(=O)N[C@@H](CC(C)C)C(=O)N[C@@H](CCC(=O)O)C(=O)N[C@@H](CCCNC(=N)N)C(=O)N[C@H](C(N)=O)C(C)C)[C@@H](C)CC)[C@@H](C)O)[C@@H](C)CC)[C@@H](C)CC)C(C)C)C(C)C

molecular target: T1, CRF1R receptor (anti-target); test: cell-based or functional assay

Binder	EC50 [nM] 0% HSA (cAMP, HTRF) [nM]	Emax (%) (100% = Sauvagine at 100 nM)
B1	> 100	4
B2	> 100	43.8
B3	> 100	15
B4	> 100	12
B5	> 100	8.77
B6	> 100	17.1
